One may read the EC50 as the concentration that produces a half-maximal response. Read a low EC50 as greater potency. As a reminder, the Kd is the free concentration of one partner at which half of the binding sites on the other are occupied at equilibrium, for simple one-to-one binding.

These results are taken from patent US20250002605A1 (WUHAN YZY BIOPHARMA, published 2025).

In experiment [1] the target is T1, human EpCAM on the cell surface (human, UniProt P16422 24-314).
T1 sequence (looked up): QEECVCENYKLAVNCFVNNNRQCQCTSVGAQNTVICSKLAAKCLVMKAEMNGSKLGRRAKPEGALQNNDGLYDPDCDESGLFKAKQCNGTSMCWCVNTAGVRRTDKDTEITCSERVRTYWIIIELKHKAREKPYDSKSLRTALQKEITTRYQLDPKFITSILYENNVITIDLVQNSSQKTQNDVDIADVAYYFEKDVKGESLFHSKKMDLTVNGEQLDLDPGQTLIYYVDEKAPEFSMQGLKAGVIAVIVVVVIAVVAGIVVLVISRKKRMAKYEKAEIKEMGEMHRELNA
Description: cell-based or functional assay.

Experiment [2] deals with CD3 on Jurkat cells. Kind of experiment: cell-based or functional assay.
The target in experiment [3] is T1, human EpCAM on the cell surface. Kind of experiment: cell-based or functional assay. This is another data set of the same source.
Experiment [4] has as its target CD3 on Jurkat cells. Kind of experiment: cell-based or functional assay. The source holds these as a separate data set.
For experiment [5], the target named is T1, human EpCAM on the cell surface. Kind of experiment: flow cytometry (FACS) on HCT116 cells, PE anti-human IgG Fc detection. (A flow cytometer gives signals particle by particle.)
For experiment [6], the target named is T2, human CD3 antigen (SB, Cat: CT038-H2508H) (human, UniProt P07766 23-126; P04234 22-105). Description: SPR (Biacore T200), CD3 antigen amine-coupled on CM5, antibody as analyte, 1:1 fit.
Experiment [7] has as its target T3, human EpCAM antigen (SB, Cat: 10694-H08H) (human, UniProt P16422 24-265).
T3 construct: Bought antigen immobilised on a CM5 chip
T3 sequence (looked up): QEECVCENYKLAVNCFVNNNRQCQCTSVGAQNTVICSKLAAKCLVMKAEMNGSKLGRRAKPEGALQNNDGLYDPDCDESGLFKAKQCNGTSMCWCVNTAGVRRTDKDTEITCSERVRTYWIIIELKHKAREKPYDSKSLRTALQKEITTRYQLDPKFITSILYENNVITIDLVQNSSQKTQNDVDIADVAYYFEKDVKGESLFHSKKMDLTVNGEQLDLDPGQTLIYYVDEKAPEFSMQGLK
Description: SPR (Biacore T200), antigen amine-coupled on CM5, antibody as analyte, 1:1 fit; D0 sample.

Experiment [8] addresses T2, human CD3 antigen (SB, Cat: …). Described as above.
The target in experiment [9] is T3, human EpCAM antigen (SB, Cat: …). Description: SPR (Biacore T200), antigen amine-coupled on CM5, antibody as analyte, 1:1 fit; D14 sample after 14 days at 40 C. Background: In SPR one partner is held on a chip, and binding of the other changes the refractive index at the surface.
Experiment [10] has as its target T2, human CD3 antigen (SB, Cat: …). The experiment is described as above.

B1: M701B (bispecific antibody, human IgG1, kappa)
light: ELVMTQSPSSLTVTAGEKVTMSCKSSQSLLNSGNQKNYLTWYQQKPGQPPKLLIYWASTRESGVPDRFTGSGSGTDFTLTISSVQAEDLAVYYCQNDYSYPLTFGAGTKLEIKRTVAAPSVFIFPPSDEQLKSGTASVVCLLNNFYPREAKVQWKVDNALQSGNSQESVTEQDSKDSTYSLSSTLTLSKADYEKHKVYACEVTHQGLSSPVTKSFNRGEC
heavy: EVQLLEQSGAELVRPGTSVKISCKASGYAFTNYWLGWVKQRPGHGLEWIGDIFPGSGNIHYNEKFKGKATLTADKSSSTAYMQLSSLTFEDSAVYFCARLRNWDEPMDYWGQGTTVTVSSASTKGPSVFPLAPSSKSTSGGTAALGCLVKDYFPEPVTVSWNSGALTSGVHTFPAVLQSSGLYSLSSVVTVPSSSLGTQTYICNVNHKPSNTKVDKKVEPKSCDKTHTCPPCPAPELLGGPSVFLFPPKPKDTLMISRTPEVTCVVVDVSHEDPEVKFNWYVDGVEVHNAKTKPREEQYNSTYRVVSVLTVLHQDWLNGKEYKCKVSNKALPAPIEKTISKAKGQPREPQVYTLPPSRDELTKNQVSLWCLVKGFYPSDIAVEWESNGQPENNYDTTPPVLDSDGSFFLYSDLTVDKSRWQQGNVFSCSVMHEALHNHYTQKSLSLSPGK
chain: QVQLVESGGGVVQPGRSLRLSCAASGFTFSTYAMNWVRQAPGKGLEWVARIRSKYNNYATYYADSVKDRFTISRDDSKNTLYLQMNSLRAEDTAVYYCARHGNFGNSYVSWFAYWGQGTLVTVSSGGGGSGGGGSGGGGSQTVVTQEPSLTVSPGGTVTLTCRSSTGAVTTSNYANWVQQKPGQAPRGLIGGTNKRAPGVPARFSGSLLGGKAALTLSGVQPEDEAEYYCALWYSNLWVFGGGTKVEIKGAAAEPKSCDKTHTCPPCPAPELLGGPSVFLFPPKPKDTLMISRTPEVTCVVVDVSHEDPEVKFNWYVDGVEVHNAKTKPREEQYNSTYRVVSVLTVLHQDWLNGKEYKCKVSNKALPAPIEKTISKAKGQPREPQVYTLPPSRDELTKNQVSLTCRVKGFYPSDIAVEWESNGQPENNYKTTPPVLKSDGSFFLASKLTVDKSRWQQGNVFSCSVMHEALHNHYTQKSLSLSPGK
notes: YBODY format; also called bispecific antibody M701B
Consider B1, for which the “cell bridging of HCT116 and Jurkat cells (CFSE/PKH26 double-positive cells, flow cytometry)” value (in experiment [1]; in the experiment with CD3 on Jurkat cells [2]) was ~40 % of the total PKH26-positive cells each time. Also, the “EC50 (read off the curve), cell bridging of HCT116 and Jurkat [panel C]” value (in [3]; in the experiment with CD3 on Jurkat cells [4]) was roughly 10 ng/mL each time. The same molecule came in with an EC50 in [5] of 3.72 nM. Also, the dissociation constant Kd in [6] was found to be 28.3 nM; in experiment [7], 20 nM; in experiment [8] it was 28.3 nM; in [9], 22.6 nM; in [10] it was 31.5 nM.
